This data set concerns the molecule itself. The data set is described as follows: semi-native SDS PAGE; whole-cell lysates of WT and Nik-/- BMDMs transfected with B-DNA (2 μg/mL) for the indicated times; native sample buffer without β-mercaptoethanol, not boiled, run on SDS gels; immunoblot for STING. (In general: Immunoblotting shows a protein as a band on a membrane.)

B1: STING, endogenous in mouse cells (natural protein, mouse (endogenous in MEFs and BMDMs), UniProt Q3TBT3 1-378, looked up)
chain: MPYSNLHPAIPRPRGHRSKYVALIFLVASLMILWVAKDPPNHTLKYLALHLASHELGLLLKNLCCLAEELCHVQSRYQGSYWKAVRACLGCPIHCMAMILLSSYFYFLQNTADIYLSWMFGLLVLYKSLSMLLGLQSLTPAEVSAVCEEKKLNVAHGLAWSYYIGYLRLILPGLQARIRMFNQLHNNMLSGAGSRRLYILFPLDCGVPDNLSVVDPNIRFRDMLPQQNIDRAGIKNRVYSNSVYEILENGQPAGVCILEYATPLQTLFAMSQDAKAGFSREDRLEQAKLFCRTLEEILEDVPESRNNCRLIVYQEPTDGNSFSLSQEVLRHIRQEEKEEVTMNAPMTSVAPPPSVLSQEPRLLISGMDQPLPLRTDLI
notes: STING (TMEM173), endogenous in murine embryonic fibroblasts and bone marrow-derived macrophages; source: endogenous, MEF lysate and BMDM lysate (cells transfected with B-DNA)
Turning to B1, the stoichiometry N (usually the number of molecules, sites or subunits per partner or assembly) worked out at 2.

Source of the values: publication PMC6050272, “A TRAF3-NIK module differentially regulates DNA vs RNA pathways in innate immune signaling” (Nature Communications, 2018).
